Assay results taken from patent EP1096011A1, “Microbiological production method for alpha-l-aspartyl-l-phenylalanine” (Holland Sweetener Company V.o.F., priority 1999, dated 2001).

B1: Asp-Leu-His6, Asp-Leu dimodular peptide synthetase from Bacillus subtilis ATCC 21332 surfactin synthetase (srfA-B), His6-tagged (Bacillus subtilis subsp. … (protein)
chain: PNVRLSDVDLLSSAETAALLEERHMTQITEATFAALFEKQAQQTPDHSAVKAGGNLLTYRELDEQANQLAHHLRAQGAGNEDIVAIVMDRSAEVMVSILGVMKAGAAFLPIDPDTPEERIRYSLEDSGAKFAVVNERNMTAIGQYEGIIVSLDDGKWRNESKERPSSISGSRNLAYVIYTSGTTGKPKGVQIEHRNLTNYVSWFSEEAGLTENDKTVLLSSYAFDLGYTSMFPVLLGGGELHIVQKETYTAPDEIAHYIKEHGITYIKLTPSLFHTIVNTASFAKDANFESLRLIVLGGEKIIPTDVIAFRKMYGHTEFINHYGPTEATIGAIAGRVDLYEPDAFAKRPTIGRPIANAGALVLNEALKLVPPGASGQLYITGQGLARGYLNRPQLTAERFVENPYSPGSLMYKTGDVVRRLSDGTLAFIGRADDQVKIRGYRIEPKEIETVMLSLSGIQEAVVLAVSEGGLQELCAYYTSDQDIEKAELRYQLSLTLPSHMIPAFFVQVDAIPLTANGKTDRNALPKPNAAQSGGKALAAPETALEESLCRIWQKTLGIEAIGIDDNFFDLGGHSLKGMMLIANIQAELEKSVPLKALFEQPTVRQLAAYMEASAVSGGHQVLKPADKQDMYPLSSAQKRMYVLNQLDRQTISYNMPSVLLMEGELDISRLRDSLNQLVNRHESLRTSFMEANGEPVQRIIEKAEVDLHVFEAKEDEADQKIKEFIRPFDLNDAPLIRAALLRIEAKKHLLLLDMHHIIADGVSRGIFVKELALLYKGEQLPEPTLHYKDFAVWQNEAEQKERMKEHEAYWMSVLSGELPELDLPLDYARPPVQSFKGDTIRFRTGSETAKAVEKLLAETGTTLHMVLHAVFHVFLSKISGQRDIVIGSVTAGRTNADVQDMPGMFVNTLALRMEAKEQQTFAELLELAKQTNLSALEHQEYPFEDLVNQLDLPRDMSRNPLFNVMVTTENPDKEQLTLQNLSISPYEAHQGTSKFDLTLGGFTDENGIGLQLEYATDLFAKETAEKWSEYVLRLLKAVADNPNQPLSSLLLVTETEKQALLEAWKGKALPVPTDKTVHQLFEETVQRHKDRPAVTYNGQSWTYGELNAKANRLARILMDCGISPDDRVGVLTKPSLEMSAAVLGVLKAGAAFVPIDPDYPDQRIEYILQDSGAKLLLKQEGISVPDSYTGDVILLDGSRTILSLPLDENDEGNPETAVTAENLAYMIYTSGTTGQPKGVMVEHHALVNLCFWHHDAFSMTAEDRSAKYAGFGFDASIWEMFPTWTIGAELHVIDEAIRLDIVRLNDYFETNGVTITFLPTQLAEQFMELENTSLRVLLTGGDKLKRAVKKPYTLVNNYGPTENTVVATSAEIHPEEGSLSIGRAIANTRVYILGEGNQVQPEGVAGELCVAGRGLARGYLNREDETAKRFVADPFVPGERMYRTGDLVKWVNGGIEYIGRIDQQVKVRGYRIELSEIEVQLAQLSEVQDAAVTAVKDKGGNTAIAAYVTPETADIEALKSTLKETLPDYMIPAFWVTLNELPVTANGKVDRKALPEPDIEAGSGEYKAPTTDMEELLAGIWQDVLGMSEVGVTDNFFSLGGDSIKGIQMASRLNQHGWKLEMKDLFQHPTIEELTQYVERAE

Key:
Test in all cases: ATP-PPi exchange reaction (amino acid activation)
[1] = test system: Asp-Phe-His6, hybrid Asp-Phe dipeptide synthetase (Asp module of Bacillus subtilis ATCC 21332 srfA-B, Phe minimal module of Bacillus brevis ATCC 8185 tycA) …; assay type: biochemical, Bacillus subtilis ATCC 21332 / Bacillus brevis ATCC 8185; details: 37°C
Procedure: (§1) Specificity of amino acid activation was determined indirectly by incorporation of labelled ^32PPi into ATP during reverse reaction (Lee, S.G. & Lipmann, F.; Tyrocidine synthetase system; Methods Enzymol. 43, 1975, p.585-602). For this purpose 20 pmol of each enzyme was incubated with 1 mM amino acid, 1 mM ATP, 0,1 mM PPi, 50 mM HEPES, 100 mM NaCl and 10 mM MgCl2 and 2 mCi ^32PPi at 37°C in a total volume of 100 µL. Reactions were quenched after 10 min by adding 500 µL of a solution containing 100 mM NaPPi, 560 mM perchloric acid and 1,2% (w/v) active charcoal. The mixture was centrifuged at 13000 rpm for 1 min. The pellet was washed and resuspended twice with 1 mL H2O.
(§2) Incorporation of labelled ATP (adsorbed to the charcoal) was detected by measuring radioactivity of the precipitate. […] KM values for Asp and ATP were determined to be 3,5 mM and 0,9 mM respectively. KM values for Leu and ATP were detected to be 0,3 mM and 0,6 mM, respectively.
(§3) The KM value for Phe was determined to be about 50 µM.

[2] = test system: Asp-Phe-TE-His6, hybrid Asp-Phe dipeptide synthetase with integrated srfA-C thiolation and TE domain, His6-tagged; assay type: biochemical, Bacillus subtilis ATCC 21332 / Bacillus brevis ATCC 8185; details: 37°C
Procedure: as §1, §2, §3

[3] = substrate: CC(C)C[C@H](N)C(=O)O; assay type: biochemical, Bacillus subtilis ATCC 21332; details: other: ATP-PPi exchange, 37°C
Procedure: as §1, §2

[4] = substrate: N[C@@H](CC(=O)O)C(=O)O; assay type: biochemical, Bacillus subtilis ATCC 21332; details: other: ATP-PPi exchange, 37°C
Procedure: as §1, §2

[5] = substrate: Nc1ncnc2c1ncn2[C@@H]1O[C@H](COP(=O)(O)OP(=O)(O)OP(=O)(O)O)[C@@H](O)[C@H]1O; assay type: biochemical, Bacillus subtilis ATCC 21332; details: other: ATP-PPi exchange, 37°C
Procedure: as §1, §2

Row | Molecule | Km [1] [µM] | Km [2] [µM] | Km [3] [µM] | Km [4] [mM] | Km ([5]; ATP value paired with Asp (Asp activation)) [µM] | Km ([5]; ATP value paired with Leu (Leu activation)) [µM]
1 | N[C@@H](Cc1ccccc1)C(=O)O [Phe, L-phenylalanine] | ~50 | ~50 | – | – | – | –
2 | B1 | – | – | 300 | 3.5 | 900 | 600
